Data reported in US20060115839A1.

Biological target: T1, histone H3 peptide with dimethylated Lys79 (isothermal titration calorimetry)
T1 sequence (peptide, dimethylated Lys79): IAQDFKTDLR
Test: isothermal titration calorimetry (data not shown)

Sequence of 53BP1 tandem tudor domain (isothermal titration calorimetry) (P70399 1480-1621 limits assumed): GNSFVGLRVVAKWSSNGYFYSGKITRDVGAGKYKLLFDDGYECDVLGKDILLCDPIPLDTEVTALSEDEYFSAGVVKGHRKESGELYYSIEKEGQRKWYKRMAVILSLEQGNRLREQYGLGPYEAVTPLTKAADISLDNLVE

**Q.** With “53BP1 tandem tudor domain (isothermal titration calorimetry) (from UniProt P70399 1480-1621)” as the substance, how does the Kd read?
**A.** < 1000 nM
